Results reported in PMC5658772 (Emerging Microbes & Infections, 2017).

Molecular target: T1, ZIKV envelope protein domain III-hFc fusion protein (ZIKV-DIII-hFc) (Zika virus strain MR766, UniProt Q32ZE1)
T1 construct: source: 293 FreeStyle, transient, purified from conditioned culture medium
Assay: BLI; Octet-Red96, 37 °C; […] (30 μg/mL, sodium acetate pH 5.0) […]; association 300 s, dissociation 1500 s; 1:1 Langmuir model; […]
Conditions: both partners purified

B1: m301 IgG1 (antibody, V domains shown)
VH: EVQLVQSGGGLVKPGGSLRLSCAASGFTFSSYGMHWVRQAPGKGLEWVAVISYDGSNKYYADSVKGRFTISRDNSKNTLYLQMNSLRAEDTAVYYCAKEVGRSYFDYWGQGTLVTVSS
VL: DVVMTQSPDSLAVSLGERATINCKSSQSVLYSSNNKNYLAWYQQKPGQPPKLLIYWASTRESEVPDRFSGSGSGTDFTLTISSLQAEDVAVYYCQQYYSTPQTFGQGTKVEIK
notes: also called m301 mAb; IgG m301; source: Expi293, transient, purified (protein G)
Q: How did the Kd turn out when B1 was run?
A: 0.2 nM

Q: And the koff?
A: 4e-05 s⁻¹

B2: m302 IgG1 (antibody, V domains shown)
VH: EVQLVQSGGGLVKPGRSLRLSCAASGFTFSSYAMHWVRQAPGKGLEWVAVISYDGSNKYYADSVKGRFTISRDNSKNTLYLQMNSLRAEDTAVYYCAREIGDYYYYGMDVWGQGTLVTVSS
VL: EIVMTQSPATLSLSPGERATLSCRASQSVSSYLAWYQQKPGQAPRLLIYDASNRATGIPARFSGSGSGTDFTLTISSLQPEDFATYYCQQSYSTPLTFGGGTKVEIK
notes: also called m302 mAb; IgG m302; source: Expi293, transient, purified (protein G)
Q: Which Kd does the source give for B2 here?
A: 47 nM

Q: And the koff?
A: 0.002 s⁻¹
